Source: patent publication US20210347852A1 (Regeneron, published 2021)

T1: Human VEGF121 (R&D SYSTEMS Cat #4644-VS) (human, UniProt P15692-9 27-147)
T1 sequence (looked up): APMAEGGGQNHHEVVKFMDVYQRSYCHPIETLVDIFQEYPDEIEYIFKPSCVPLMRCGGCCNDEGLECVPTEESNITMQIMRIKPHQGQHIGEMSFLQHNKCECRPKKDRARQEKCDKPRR


Key:
[1] = biological target: T2, Human VEGF165 (REGN110) (human, UniProt P15692-4 27-191); test: SPR, 25C, trap captured by REGN18, hVEGF165 injected
T2 construct: also called hVEGF165; REGN110-L9
Procedure: (§1) Equilibrium dissociation constants (KD values) for human VEGF₁₆₅ binding to various purified VEGF mini-trap constructs were determined using a real-time surface plasmon resonance biosensor using a Biacore 3000 instrument. All binding studies were performed in 10 mM HEPES, 150 mM NaCl, 3 mM EDTA, and 0.05% v/v Surfactant Tween-20; pH 7.4 (HBS-ET) running buffer at 25° C. The Biacore sensor surface was first derivatized by amine coupling with a monoclonal mouse anti-VEGFR1 antibody (REGN18) to capture VEGF mini-trap constructs. Binding studies were performed on the following human VEGF reagents: human VEGF₁₆₅. […] Dissociation of bound VEGF₁₆₅ reagent from VEGF mini-trap constructs was monitored for 60 minutes in HBS-ET running buffer. Kinetic association (ka) and dissociation (kd) rate constants were determined by fitting the real-time sensorgrams to a 1:1 binding model using Scrubber 2.0c curve fitting software. Binding dissociation equilibrium constants (KD) and dissociative half-lives (t1/2) were calculated from the kinetic rate constants as: […]

[2] = biological target: T1, Human VEGF121 (R&D SYSTEMS Cat #4644-VS); test: cell-based or functional assay
[3] = biological target: T1, Human VEGF121 (R&D SYSTEMS Cat #4644-VS); test: cell-based or functional assay; remark: listed apart in the source
[4] = biological target: T2, Human VEGF165 (REGN110); test: SPR (Biacore 3000), 25C, trap captured by REGN18, hVEGF165 injected
Procedure: as §1

[5] = biological target: T1, Human VEGF121 (R&D SYSTEMS Cat #4644-VS); test: cell-based or functional assay; remark: listed apart in the source
[6] = biological target: T1, Human VEGF121 (R&D SYSTEMS Cat #4644-VS); test: cell-based or functional assay; remark: listed apart in the source
[7] = biological target: T2, Human VEGF165 (REGN110); test: cell-based or functional assay
[8] = biological target: T1, Human VEGF121 (R&D SYSTEMS Cat #4644-VS); test: cell-based or functional assay; remark: listed apart in the source

Binder | 2 nM VEGF165 Bound (RU) [1] | Kd [1] | koff [1] | kon [1] | t½ [1] | IC50, Inhibition of 20 pM VEGF121, VEGFR1 assay (luciferase) [2] | IC50 (read off the curve); NFkB-luciferase reporter (RLU), 293/D9/VEGFR1 cells, VEGF121 constant 40 pM [D] [3] | 2.5 nM hVEGF165 Bound (RU) [4] | Kd [4] | koff [4] | kon [4] | t½ [4] | IC50 (read off the curve); NFkB-luciferase reporter (RLU), 293/D9/VEGFR1 cells, VEGF121 constant 40 pM [B] [5] | IC50, VEGFR1 40 pM R&D VEGF121 (luciferase) [6] | IC50, VEGFR1 40 pM VEGF165 (REGN110) (luciferase) [7] | IC50 (read off the curve); NFkB-luciferase reporter (RLU), 293/D9/VEGFR1 cells, VEGF121 constant 40 pM [E] [8]
REGN10105 (Alexa 488) (other, tagged with Alexa Fluor 488 (AF488) through amine conjugation, also called REGN10105 AF488) SDTGRPFVEMYSEIPEIIHMTEGRELVIPCRVTSPNITVTLKKFPLDTLIPDGKRIIWDSRKGFIISNATYKEIGLLTCEATVNGHLYKTNYLTHRQTNTIIDVVLSPSHGIELSVGEKLVLNCTARTELNVGIDFNWEYPSSKHQHKKLVNRDLKTQSGSEMKKFLSTLTIDGVTRSDQGLYTCAASSGLMTKKNSTFVRVHEKVECPPCPAPPVA | 18 RU | ≤ 0.74 pM | ≤ 1e-05 s⁻¹ | 1.36e+07 M⁻¹ s⁻¹ | ≥ 19.2 h |  |  |  |  |  |  |  |  |  |  | 
REGN10187, VEGF Trap hIgG4 stealth Fc (Fc fusion) SDTGRPFVEMYSEIPEIIHMTEGRELVIPCRVTSPNITVTLKKFPLDTLIPDGKRIIWDSRKGFIISNATYKEIGLLTCEATVNGHLYKTNYLTHRQTNTIIDVVLSPSHGIELSVGEKLVLNCTARTELNVGIDFNWEYPSSKHQHKKLVNRDLKTQSGSEMKKFLSTLTIDGVTRSDQGLYTCAASSGLMTKKNSTFVRVHEKESKYGPPCPPCPAPPVAGPSVFLFPPKPKDTLMISRTPEVTCVVVDVSQEDPEVQFNWYVDGVEVHNAKTKPREEQFNSTYRVVSVLTVLHQDWLNGKEYKCKVSNKGLPSSIEKTISKAKGQPREPQVYTLPPSQEEMTKNQVSLTCLVKGFYPSDIAVEWESNGQPENNYKTTPPVLDSDGSFFLYSRLTVDKSRWQEGNVFSCSVMHEALHNHYTQKSLSLSLGK |  |  |  |  |  | 1.25e-11 M | ~1e-11 M | 10.5 RU | 1.82 pM | 1.73e-05 s⁻¹ | 9.5e+06 M⁻¹ s⁻¹ | 11.1 h |  |  |  | 
REGN10104, VEGF Trap hIgG1 stealth Fc (Fc fusion) SDTGRPFVEMYSEIPEIIHMTEGRELVIPCRVTSPNITVTLKKFPLDTLIPDGKRIIWDSRKGFIISNATYKEIGLLTCEATVNGHLYKTNYLTHRQTNTIIDVVLSPSHGIELSVGEKLVLNCTARTELNVGIDFNWEYPSSKHQHKKLVNRDLKTQSGSEMKKFLSTLTIDGVTRSDQGLYTCAASSGLMTKKNSTFVRVHEKDKTHTCPPCPAPPVAGPSVFLFPPKPKDTLMISRTPEVTCVVVDVSQEDPEVQFNWYVDGVEVHNAKTKPREEQFNSTYRVVSVLTVLHQDWLNGKEYKCKVSNKGLPSSIEKTISKAKGQPREPQVYTLPPSRDELTKNQVSLTCLVKGFYPSDIAVEWESNGQPENNYKTTPPVLDSDGSFFLYSKLTVDKSRWQQGNVFSCSVMHEALHNHYTQKSLSLSPGK |  |  |  |  |  | 1.91e-11 M |  | 7.3 RU | 1.1 pM | 1.01e-05 s⁻¹ | 9.2e+06 M⁻¹ s⁻¹ | 19.1 h | ~2e-11 M |  |  | 
mREGN10104, VEGF mini-trap hIgG1 stealth Fc (other, IdeS cleaved from REGN10104; also called Mini-REGN10104) SDTGRPFVEMYSEIPEIIHMTEGRELVIPCRVTSPNITVTLKKFPLDTLIPDGKRIIWDSRKGFIISNATYKEIGLLTCEATVNGHLYKTNYLTHRQTNTIIDVVLSPSHGIELSVGEKLVLNCTARTELNVGIDFNWEYPSSKHQHKKLVNRDLKTQSGSEMKKFLSTLTIDGVTRSDQGLYTCAASSGLMTKKNSTFVRVHEKDKTHTCPPCPAPPVA |  |  |  |  |  | 1.34e-11 M |  | 12.2 RU | 1.78 pM | 1.7e-05 s⁻¹ | 9.5e+06 M⁻¹ s⁻¹ | 11.3 h | ~1e-11 M |  |  | 
REGN11095, VEGF mini-trap hIgG1 Mut GGGL Fc (other, also called Mini-REGN10514; mREGN10514) SDTGRPFVEMYSEIPEIIHMTEGRELVIPCRVTSPNITVTLKKFPLDTLIPDGKRIIWDSRKGFIISNATYKEIGLLTCEATVNGHLYKTNYLTHRQTNTIIDVVLSPSHGIELSVGEKLVLNCTARTELNVGIDFNWEYPSSKHQHKKLVNRDLKTQSGSEMKKFLSTLTIDGVTRSDQGLYTCAASSGLMTKKNSTFVRVHEKDKTHTCPPCPGGGLLG | 19.4 RU | ≤ 0.86 pM | ≤ 1e-05 s⁻¹ | 1.16e+07 M⁻¹ s⁻¹ | ≥ 19.2 h |  |  |  |  |  |  |  |  | 2.16e-11 M | 2.19e-11 M | 
REGN11095 (Alexa 488) (other, tagged with Alexa Fluor 488 (AF488) through amine conjugation, also called REGN11095 AF488) SDTGRPFVEMYSEIPEIIHMTEGRELVIPCRVTSPNITVTLKKFPLDTLIPDGKRIIWDSRKGFIISNATYKEIGLLTCEATVNGHLYKTNYLTHRQTNTIIDVVLSPSHGIELSVGEKLVLNCTARTELNVGIDFNWEYPSSKHQHKKLVNRDLKTQSGSEMKKFLSTLTIDGVTRSDQGLYTCAASSGLMTKKNSTFVRVHEKDKTHTCPPCPGGGLLG | 14.9 RU | ≤ 0.865 pM | ≤ 1e-05 s⁻¹ | 1.16e+07 M⁻¹ s⁻¹ | ≥ 19.2 h |  |  |  |  |  |  |  |  |  |  | 
REGN10103, VEGF mini-trap hIgG2 Fc w/4Cys (other) SDTGRPFVEMYSEIPEIIHMTEGRELVIPCRVTSPNITVTLKKFPLDTLIPDGKRIIWDSRKGFIISNATYKEIGLLTCEATVNGHLYKTNYLTHRQTNTIIDVVLSPSHGIELSVGEKLVLNCTARTELNVGIDFNWEYPSSKHQHKKLVNRDLKTQSGSEMKKFLSTLTIDGVTRSDQGLYTCAASSGLMTKKNSTFVRVHEKERKCCVECPPCPAPPVA |  |  |  |  |  | 2.11e-11 M |  | 14.8 RU | ≤ 1.08 pM | ≤ 1e-05 s⁻¹ | 9.3e+06 M⁻¹ s⁻¹ | ≥ 19.2 h |  |  |  | ~2e-11 M
mREGN10187, VEGF mini-trap hIgG4 stealth Fc (other, IdeS cleaved from REGN10187; also called Mini-REGN10187) SDTGRPFVEMYSEIPEIIHMTEGRELVIPCRVTSPNITVTLKKFPLDTLIPDGKRIIWDSRKGFIISNATYKEIGLLTCEATVNGHLYKTNYLTHRQTNTIIDVVLSPSHGIELSVGEKLVLNCTARTELNVGIDFNWEYPSSKHQHKKLVNRDLKTQSGSEMKKFLSTLTIDGVTRSDQGLYTCAASSGLMTKKNSTFVRVHEKESKYGPPCPPCPAPPVA |  |  |  |  |  | 1.32e-11 M | ~1e-11 M | 14.3 RU | ≤ 1.37 pM | ≤ 1e-05 s⁻¹ | 7.3e+06 M⁻¹ s⁻¹ | ≥ 19.2 h |  |  |  | 
